According to article doi:10.1101/701250 (bioRxiv, 2019):
Read-outs that look alike come from different tables or passages of the source.

B1: KAP3 (separately purified) (natural protein, Mus musculus, UniProt P70188-1 1-793, looked up)
chain: MQGEDARYLKRKVKGGNIDVHPSEKALIVQYEVEATILGEMGDPMLGERKECQKIIRLKSLNANTDITSLARKVVEECKLIHPSKLSEVEQLLYYLQNRRDSLPGKEKKEKSSKPKDPPPFEGMEIDEVANINDMDEYIELLYEDIPDKVRGSALILQLARNPDNLEELLLNETALGALARVLREDWKQSVELATNIIYIFFCFSSFSHFHGLITHYKIGALCMNIIDHELKRHELWQEELSKKKKAVDEDLENQTLRKDYDKTFKKYQGLVVKQEQLLRVALYLLLNLAEDTRTELKMRNKNIVHMLVKALDRDNFELLILVVSFLKKLSIFMENKNDMVEMDIVEKLVKMIPCEHEDLLNITLRLLLNLSFDTGLRNKMVQVGLLPKLTALLGNENYKQIAMCVLYHISMDDRFKSMFAYTDCIPQLMKMLFECSDERIDLELISFCINLAANKRNVQLICEGNGLKMLMKRALKLKDPLLMKMIRNISQHDGPTKNLFIDYVGDLAAQISSDEEEEFVIECLGTLANLTIPDLDWELVLKEYKLVPFLKDKLKPGAAEDDLVLEVVIMIGTVSMDDSCAALLAKSGIIPALIELLNAQQEDDEFVCQIIYVFYQMVFHQATRDVIIKETQAPAYLIDLMHDKNNEIRKVCDNTLDIIAEYDEEWAKKIQSEKFRWHNSQWLEMVESRQLDESEQYLYGDDRIEPYIHEGDILERPDLFYNSDGLITSEGAISPDFFNDFHLQNGDVVGQHAFPGSLGMDGFGQPLGILGRPATAYGFRPDEPYYYSFGSR
B2: homodimeric KIF3A-SNAP labelled with Alexa647 or TMR (natural protein, Mus musculus, UniProt P28741 1-701, looked up)
chain: MPINKSEKPESCDNVKVVVRCRPLNEREKSMCYRQAVSVDEMRGTITVHKTDSSNEPPKTFTFDTVFGPESKQLDVYNLTARPIIDSVLEGYNGTIFAYGQTGTGKTFTMEGVRAVPGLRGVIPNSFAHIFGHIAKAEGDTRFLVRVSYLEIYNEEVRDLLGKDQTQRLEVKERPDVGVYIKDLSAYVVNNADDMDRIMTLGHKNRSVGATNMNEHSSRSHAIFTITIECSEKGVDGNMHVRMGKLHLVDLAGSERQAKTGATGQRLKEATKINLSLSTLGNVISALVDGKSTHVPYRNSKLTRLLQDSLGGNSKTMMCANIGPADYNYDETISTLRYANRAKNIKNKARINEDPKDALLRQFQKEIEELKKKLEEGEEVSGSDISGSEEDDEEGELGEDGEKKKKRRDQAGKKKVSPDKMVEMQAKIDEERKALETKLDMEEEERNKARAELERREKDLLKAQQEHQSLLEKLSALEKKVIVGGVDLLAKAEEQEKLLEESNMELEERRRRAEQLRKELEEKEQERLDIEEKYTSLQEEAQGKTKKLKKVWTMLMAAKSEMADLQQEHQREIEGLLENIRQLSRELRLQMLIIDNFIPQDYQEMIENYVHWNEDIGEWQLKCVAYTGNNMRKQTPVPDKKERDPFEVDLSHVYLAYTEESLRQSLMKLERPRTSKGKARPKMGRRKRSAKPETVIDSLLQ
modifications: Alexa647 or TMR on the SNAP tag
B3: KIF3A purified from E. coli (natural protein, Mus musculus, UniProt P28741 1-701, looked up)
chain: B2 chain

Tests used:
[1] = target: B3; assay: SEC-MALS
full-length APC-GFP = full-length APC-GFP (Mus musculus, UniProt Q61315 1-2845); assay: MST
full-length APC-GFP, sequence (Q61315 whole entry): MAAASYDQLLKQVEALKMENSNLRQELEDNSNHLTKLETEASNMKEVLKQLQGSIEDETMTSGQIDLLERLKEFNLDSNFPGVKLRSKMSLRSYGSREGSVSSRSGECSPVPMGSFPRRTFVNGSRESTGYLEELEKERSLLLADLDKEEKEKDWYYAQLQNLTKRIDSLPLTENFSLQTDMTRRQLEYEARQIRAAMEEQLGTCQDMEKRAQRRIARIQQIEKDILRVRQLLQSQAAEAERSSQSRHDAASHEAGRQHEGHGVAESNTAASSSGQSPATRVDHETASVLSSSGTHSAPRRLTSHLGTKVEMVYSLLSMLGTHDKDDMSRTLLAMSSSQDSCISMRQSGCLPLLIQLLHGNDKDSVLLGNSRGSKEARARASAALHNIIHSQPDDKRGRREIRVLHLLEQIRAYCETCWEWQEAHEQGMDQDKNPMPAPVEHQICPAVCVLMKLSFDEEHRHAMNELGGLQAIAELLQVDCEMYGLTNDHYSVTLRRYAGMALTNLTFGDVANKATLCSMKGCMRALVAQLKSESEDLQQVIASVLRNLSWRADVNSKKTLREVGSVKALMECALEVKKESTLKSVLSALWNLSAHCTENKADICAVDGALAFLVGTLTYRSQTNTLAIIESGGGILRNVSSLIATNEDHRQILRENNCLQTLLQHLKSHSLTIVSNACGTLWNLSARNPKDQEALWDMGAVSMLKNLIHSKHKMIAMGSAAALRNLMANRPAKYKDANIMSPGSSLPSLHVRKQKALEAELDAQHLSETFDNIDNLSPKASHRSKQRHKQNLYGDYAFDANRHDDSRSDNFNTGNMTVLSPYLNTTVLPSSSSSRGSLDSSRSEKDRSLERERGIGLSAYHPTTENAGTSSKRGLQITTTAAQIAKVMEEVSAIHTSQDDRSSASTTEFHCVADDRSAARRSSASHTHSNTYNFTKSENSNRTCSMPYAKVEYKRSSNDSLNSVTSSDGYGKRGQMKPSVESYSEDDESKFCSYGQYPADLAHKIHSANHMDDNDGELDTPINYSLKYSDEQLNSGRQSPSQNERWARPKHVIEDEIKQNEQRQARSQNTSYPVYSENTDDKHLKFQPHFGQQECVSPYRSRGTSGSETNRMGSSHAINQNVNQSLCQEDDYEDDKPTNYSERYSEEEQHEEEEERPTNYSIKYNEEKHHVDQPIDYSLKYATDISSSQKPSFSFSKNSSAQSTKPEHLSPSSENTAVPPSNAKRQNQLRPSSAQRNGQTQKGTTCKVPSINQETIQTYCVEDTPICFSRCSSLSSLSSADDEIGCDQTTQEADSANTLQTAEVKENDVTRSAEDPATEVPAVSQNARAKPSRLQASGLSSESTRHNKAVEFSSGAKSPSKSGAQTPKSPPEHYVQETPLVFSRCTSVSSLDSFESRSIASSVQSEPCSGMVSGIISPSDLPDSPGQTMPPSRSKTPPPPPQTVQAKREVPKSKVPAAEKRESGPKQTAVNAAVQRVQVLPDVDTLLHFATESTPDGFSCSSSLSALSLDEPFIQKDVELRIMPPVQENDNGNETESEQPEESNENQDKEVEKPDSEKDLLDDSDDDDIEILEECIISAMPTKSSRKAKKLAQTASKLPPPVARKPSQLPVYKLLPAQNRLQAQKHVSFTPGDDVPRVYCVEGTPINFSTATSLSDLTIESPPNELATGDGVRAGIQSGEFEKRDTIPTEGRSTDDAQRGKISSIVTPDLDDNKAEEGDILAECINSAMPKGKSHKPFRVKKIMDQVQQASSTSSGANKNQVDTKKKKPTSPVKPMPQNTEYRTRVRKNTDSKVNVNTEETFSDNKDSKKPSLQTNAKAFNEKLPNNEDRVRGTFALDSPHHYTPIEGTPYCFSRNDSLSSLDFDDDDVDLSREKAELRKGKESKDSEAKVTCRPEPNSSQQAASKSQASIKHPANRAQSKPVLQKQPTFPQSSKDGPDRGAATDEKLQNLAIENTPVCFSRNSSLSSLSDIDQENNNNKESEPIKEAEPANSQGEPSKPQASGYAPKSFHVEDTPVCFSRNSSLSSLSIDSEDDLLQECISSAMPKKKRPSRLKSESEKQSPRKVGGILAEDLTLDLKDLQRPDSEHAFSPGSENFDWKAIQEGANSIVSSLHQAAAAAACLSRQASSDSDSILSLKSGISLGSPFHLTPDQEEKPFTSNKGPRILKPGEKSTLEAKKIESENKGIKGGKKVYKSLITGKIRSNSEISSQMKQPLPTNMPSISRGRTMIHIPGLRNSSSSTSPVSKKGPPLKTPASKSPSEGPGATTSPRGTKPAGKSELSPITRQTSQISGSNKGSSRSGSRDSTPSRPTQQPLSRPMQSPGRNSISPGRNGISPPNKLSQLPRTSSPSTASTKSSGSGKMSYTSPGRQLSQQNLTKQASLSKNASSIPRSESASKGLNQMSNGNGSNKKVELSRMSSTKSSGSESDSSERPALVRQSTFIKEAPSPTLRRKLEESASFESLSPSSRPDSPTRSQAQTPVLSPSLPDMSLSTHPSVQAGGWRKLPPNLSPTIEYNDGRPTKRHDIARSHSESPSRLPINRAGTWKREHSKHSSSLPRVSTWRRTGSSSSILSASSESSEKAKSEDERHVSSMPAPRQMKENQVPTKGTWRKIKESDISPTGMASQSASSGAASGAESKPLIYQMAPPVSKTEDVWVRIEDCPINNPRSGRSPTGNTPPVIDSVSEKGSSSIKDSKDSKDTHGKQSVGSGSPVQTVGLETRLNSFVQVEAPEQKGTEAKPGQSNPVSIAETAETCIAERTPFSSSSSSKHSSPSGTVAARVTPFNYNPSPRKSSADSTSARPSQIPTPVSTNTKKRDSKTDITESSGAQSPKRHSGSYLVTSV

[2] = target: the molecule itself
SEC-MALS = target: the molecule itself; assay: SEC-MALS

Binder: B1
stoichiometry N [1]: 1 KAP3 per KIF3A dimer | binding result (full-length APC-GFP): binds

Binder: B2
stoichiometry N [2]: 2

Binder: B3
stoichiometry N (SEC-MALS): 2
